Experimental data reported in patent US20220162328A1 (SHANDONG BOAN BIOTECHNOLOGY, published 2022).
Positions count from the first letter of the chain named.

Experiments:
IL4R-Fc-biotin [1] = target: T1, IL4R-Fc-biotin (UniProt P24394 26-232, biotinylated (sites not given)); test: competition ELISA: IL4 coated, IL4R-Fc-biotin (0.4 µg/ml) pre-incubated with antibody dilutions
T1 construct: also called IL4R-Fc protein (Sinobiological Co., Ltd., 10402-H02H); not shown: Fc part
T1 sequence (looked up): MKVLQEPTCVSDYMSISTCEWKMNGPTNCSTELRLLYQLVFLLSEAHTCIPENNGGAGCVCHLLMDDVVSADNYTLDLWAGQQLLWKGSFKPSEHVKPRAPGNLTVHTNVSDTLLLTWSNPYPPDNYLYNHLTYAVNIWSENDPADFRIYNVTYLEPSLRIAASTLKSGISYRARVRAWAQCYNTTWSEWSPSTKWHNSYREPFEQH
Experimental: IL4 (11846-HANE, Sinobiological Co., Ltd.) was coated at the concentration of 0.2 μg/ml in 100 μL/well at 4° C. overnight; 3% skimmed milk powder was used for blocking 1 h; at the same time, IL4R-Fc-biotin (0.4 μg/ml) and candidate antibody at different concentrations (30 μg/mL, 7.5 μg/mL, 1.875 μg/mL, […], 0.1171875 μg/mL and 0 μg/mL) were co-incubated at 37° C. for 1 h, then added to the blocked ELISA plate and co-incubated at 37° C. for another 1 h; then […]/HRP (R&D, Cat. No.: 890803) was added, and incubated at 37° C. for 1 h; color development was stopped, after 10 min color development, with the addition of 50 μL of 2M H₂SO₄ to each well. OD450 was measured with a microplate reader.

[2] = target: T2, receptors of IL4/IL13 on TF-1 cells and PBMC (IL4 receptor) (human, UniProt P24394 26-825); test: cell-based or functional assay
T2 sequence (looked up): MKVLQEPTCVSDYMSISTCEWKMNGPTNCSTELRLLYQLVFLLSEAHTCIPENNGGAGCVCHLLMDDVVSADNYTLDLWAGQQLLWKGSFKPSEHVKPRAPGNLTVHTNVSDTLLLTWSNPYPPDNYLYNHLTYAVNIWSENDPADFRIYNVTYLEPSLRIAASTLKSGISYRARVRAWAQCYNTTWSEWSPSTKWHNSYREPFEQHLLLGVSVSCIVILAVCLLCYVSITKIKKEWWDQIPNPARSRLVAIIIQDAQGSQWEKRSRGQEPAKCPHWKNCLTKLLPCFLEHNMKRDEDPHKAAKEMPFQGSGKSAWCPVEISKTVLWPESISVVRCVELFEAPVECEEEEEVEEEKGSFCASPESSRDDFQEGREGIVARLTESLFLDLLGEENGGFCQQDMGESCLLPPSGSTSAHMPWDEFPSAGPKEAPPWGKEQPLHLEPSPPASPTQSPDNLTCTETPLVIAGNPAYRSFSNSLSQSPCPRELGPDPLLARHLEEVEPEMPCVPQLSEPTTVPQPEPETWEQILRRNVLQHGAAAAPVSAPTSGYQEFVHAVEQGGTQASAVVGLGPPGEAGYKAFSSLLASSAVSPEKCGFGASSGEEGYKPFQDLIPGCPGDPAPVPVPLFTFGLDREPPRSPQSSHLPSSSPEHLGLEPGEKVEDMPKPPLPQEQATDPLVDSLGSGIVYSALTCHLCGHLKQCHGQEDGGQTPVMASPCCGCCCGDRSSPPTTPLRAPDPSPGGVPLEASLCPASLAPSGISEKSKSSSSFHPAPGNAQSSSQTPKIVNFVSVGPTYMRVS

IL4R-Fc-biotin [3] = target: T1, IL4R-Fc-biotin; test: competition ELISA: IL13RA1 coated, IL4R-Fc-biotin (0.24 µg/ml) and IL13 (1 µg/ml) pre-incubated with antibody dilutions
Experimental: IL13RA1 (10943-H08H, Sinobiological Co., Ltd.) was coated at the concentration of 0.8 μg/ml in 100 μL/well at 4° C. overnight; 3% skimmed milk powder was used for blocking 1 h; at the same time, IL4R-Fc-biotin (0.24 μg/ml) and IL13 (1 μg/ml, 10369-HANE, Sinobiological Co., Ltd.) and candidate antibody at different concentrations (30 μg/mL, 7.5 μg/mL, 1.875 μg/mL, 0.46875 μg/mL, 0.1171875 μg/mL and 0 μg/mL) were co-incubated at 37° C. for 1 h, then added to the blocked ELISA plate and co-incubated at 37° C. for another 1 h; after washing three times with PBST, […]/HRP (R&D, Cat. No.: 890803) was added, and incubated at 37° C. for 1 h; and after washing four times with PBST, TMB was used for color development for 10 min. 50 μL of 2M H₂SO₄ was added to each well to stop color development. OD450 was measured with a microplate reader.

[4] = target: T3, human IL4R (10402-H08H, Sinobiological Co., Ltd.) (human, UniProt P24394 26-232); test: ELISA: IL4R coated at graded concentrations (0.4-0 µg/ml), antibody fixed at 2 µg/ml
T3 construct: Bought protein, coated on ELISA plates; also called IL4R-His protein; IL4R protein; not shown: His tag
T3 sequence (looked up): T1 sequence (looked up)
Experimental: CBS coating solution (pH 9.6 carbonic acid solution) was used to coat protein IL4R (10402-H08H, Sinobiological Co., Ltd.) at different concentrations (0.4 μg/ml, 0.2 μg/ml, 0.1 μg/ml, 0.05 μg/ml, 0.025 μg/ml, 0.0125 μg/ml, 0.00625 μg/ml and 0 μg/ml) in 100 μL/well at 4° C. overnight; 3% skimmed milk powder was used for blocking 1 h at 37° C.; 100 μL of candidate antibody at 2 μg/ml was added to each well and incubated at 37° C. for 1 h; and then goat anti-human IgG (H+L)/HRP (KPL, Cat. No.: 474-1006) was added, and incubated at 37° C. for 1 h. Color development was stopped, after 10 min color development, with the addition of 50 μL of 2 M H₂SO₄ to each well, and OD450 was measured with a microplate reader. Compared with the control antibody, 3 antibodies had close binding sensitivity to IL4R protein.

IL4R-Fc-biotin [5] = target: T1, IL4R-Fc-biotin; test: competition ELISA: IL4 coated, IL4R-Fc-biotin (0.4 µg/ml) with antibody dilutions
Experimental: IL4 (11846-HANE, Sinobiological Co., Ltd.) was coated at the concentration of 0.2 μg/ml in 100 μL/well at 4° C. overnight; 3% skimmed milk powder was used for blocking 1 h; at the same time, 50 μL of IL4R-Fc-biotin (0.4 μg/ml) and 50 μL of candidate antibody at different concentrations (16 μg/mL, 4 μg/mL, 1 μg/mL, 0.25 μg/mL, 0.0625 μg/mL, 0.015625 μg/mL, and 0.00390625 μg/mL), 100 μL in total, were added to the blocked ELISA plate and co-incubated at 37° C. for 1 h; after washing three times with PBST, […]/HRP (R&D, Cat. No.: 890803) was added, and incubated at 37° C. for 1 h; and 100 μL of TMB color developing solution (Beijing Meike Wande Co., Ltd., Cat. No.: 1001) was added to each well. Color development was stopped, after 10 min color development, with the addition of 50 μL of 2 M concentrated sulfuric acid, and OD450 was measured with a microplate reader.

B1: IL4R-BA030-IgG4 (antibody, V domains shown)
VH: QVQLVESGGGVVQPGRSLRLSCAASGFTFSSYAIHWVRQAPGKGLEWVAVISYDGSKKYYADSVKGRFTISRDNSKNTLYLQMNSLRAEDTAVYYCAREYYYGMDVWGQGTTVTVSS
VL: DIVMTQSPSTLSASVGDRVTITCRASQSISNWLAWYQQKPGKAPKRLIYKASSLESGVPSRFSGSGSGTEFTLTISSLQPDDFATYYCQQYNRYFTFGQGTKLEIKR
notes: also called IL4RQ14-BA030
- IC50 (IL4R-Fc-biotin [1]): 0.346 µg/mL
- IC50 (IL4, ng/mL), PBMC, inhibition of IL4-promoted proliferation [2]: 8.09 ng/mL
- IC50 (IL4, ng/mL), TF-1 Cells, inhibition of IL4-induced proliferation [2]: 227 ng/mL
- IC50 (IL13, ng/mL), TF-1 Cells, inhibition of IL13-induced proliferation [2]: 9 ng/mL
- IC50 (IL4R-Fc-biotin [3]): 0.381 µg/mL
- EC50 [4]: 0.031 µg/mL
- IC50 (IL4R-Fc-biotin [5]): 0.343 µg/mL

B2: BA420 (antibody, IgG4, V domains shown)
VH: QVQLVESGGGAVQPGRSLRVSCAASGFTFSSHGMDWVRQVPGKGLEWVAVISYDGKKKYYADSVKGRFTISRDNSKNTLYLQMNSLRAEDTAIYYCVKESRYYYGMDVWGQGTTVTVSS
VL: DIVMTQSPSTLSASVGDRVTITCRASPSISSWLAWYQQKPGKAPKVLIYKSSRLESGVPSRFSGNGSGTEFTLTISSLQPDDFATYYCQQYNGYSWTFGQGTKVEIKR
notes: also called IL4RQ24-BA420
- IC50 (IL4R-Fc-biotin [5]): 0.334 µg/mL

B3: BA034 (antibody, IgG4, V domains shown)
VH: B2 VH with G8R
VL: B2 VL with V3Q, P27Q, I29F, S30N, V46L, N65S
notes: also called IL4RQ14-BA034
- IC50 (IL4R-Fc-biotin [5]): 0.71 µg/mL

B4: BA1301 (antibody, IgG4, V domains shown)
VH: QVQLVESGGGVVQPGRSLRLSCAASGLTFSSYAMHWVRQAPGKGLEWVAVISYDGSNKYYADSVKGRFTISRDNSKNTLYLQMNSLRAEDTAVYYCARGFGYFDLWGRGTLVTVSS
VL: DIQMTQSPSTLSASVGDRVTITCRASQSITRRLAWYQQKPGKAPKLLIYKASSLESGVPSRFSGSGSGTEFTLTISSLQPDDFATYYCQQYVSFSRTFGQGTKVEIKR
notes: also called IL4RQ29-BA1301
- IC50 (IL4R-Fc-biotin [5]): 0.592 µg/mL

B5: Dupilumab (antibody, human IgG4 S228P, kappa, V domains shown)
VH: EVQLVESGGGLEQPGGSLRLSCAGSGFTFRDYAMTWVRQAPGKGLEWVSSISGSGGNTYYADSVKGRFTISRDNSKNTLYLQMNSLRAEDTAVYYCAKDRLSITIRPRYYGLDVWGQGTTVTVSS
VL: DIVMTQSPLSLPVTPGEPASISCRSSQSLLYSIGYNYLDWYLQKSGQSPQLLIYLGSNRASGVPDRFSGSGSGTDFTLKISRVEAEDVGFYYCMQALQTPYTFGQGTKLEIKR
- IC50 (IL4, ng/mL), PBMC, inhibition of IL4-promoted proliferation [2]: 2.87 ng/mL
- IC50 (IL4, ng/mL), TF-1 Cells, inhibition of IL4-induced proliferation [2]: 65 ng/mL
- IC50 (IL13, ng/mL), TF-1 Cells, inhibition of IL13-induced proliferation [2]: 9 ng/mL

B6: IL4R-BA173-IgG4 (antibody, V domains shown)
VH: QVQLVESGGGVVQPGRSLRLSCAASGFTFSSYAMHWVRQAPGKGLEWVAVISYDGSNKYYADSVKGRFTISRDNSKNTLYLQMNSLRAEDTAVYYCARGLTTVRGVLYWGQGTLVTVSS
VL: DIVMTQSPSTLSASVGDRVTITCRASQSISTRLAWYQQKPGKAPKLLVYWASSLESGVPSRFSGSGSGTEFTLAISSLQPDDFGTYYCQQYTSYSWTFGQGTKLEIKR
notes: also called IL4RQ6-BA173
- IC50 (IL4R-Fc-biotin [1]): 0.367 µg/mL
- IC50 (IL4, ng/mL), PBMC, inhibition of IL4-promoted proliferation [2]: 1.02 ng/mL
- IC50 (IL4, ng/mL), TF-1 Cells, inhibition of IL4-induced proliferation [2]: 66 ng/mL
- IC50 (IL13, ng/mL), TF-1 Cells, inhibition of IL13-induced proliferation [2]: 6 ng/mL
- IC50 (IL4R-Fc-biotin [3]): 0.302 µg/mL
- EC50 [4]: 0.025 µg/mL
- IC50 (IL4R-Fc-biotin [5]): 0.354 µg/mL

B7: IL4R-BA167-IgG4 (antibody, V domains shown)
VH: B6 VH
VL: EIVMTQSPSSLSASLGDRVTITCRASQNIGSRLAWYQQKPGKAPKLLIYKASSLESGVPSRFSGSGSGTEFTLTISSLQPDDFATYYCQQYNSYSWTFGQGTKLEIKR
notes: also called IL4RQ6-BA167
- IC50 (IL4R-Fc-biotin [1]): 0.477 µg/mL
- IC50 (IL4, ng/mL), PBMC, inhibition of IL4-promoted proliferation [2]: 1.52 ng/mL
- IC50 (IL4, ng/mL), TF-1 Cells, inhibition of IL4-induced proliferation [2]: 139 ng/mL
- IC50 (IL13, ng/mL), TF-1 Cells, inhibition of IL13-induced proliferation [2]: 5 ng/mL
- IC50 (IL4R-Fc-biotin [3]): 0.407 µg/mL
- EC50 [4]: 0.045 µg/mL
- IC50 (IL4R-Fc-biotin [5]): 0.458 µg/mL
